Data taken from patent US20250186602A1, “HUMANIZED ANTIBODY THAT BONDS TO EVA1 PROTEIN OR FUNCTIONAL FRAGMENT THEREOF, ANTIBODY-DRUG CONJUGATE AND CHIMERIC ANTIGEN RECEPTOR” (CURED INC., priority 2022, published 2025).
Residue numbers refer to the chain shown, from its start.

B1: Chimeric antibody (CHO): chimeric human IgG1 obtained by substituting the constant regions of the B2E5-48 mouse antibody with those of human IgG type 1; control (antibody, V domains shown)
VH: QVQLQQPGAELVKPGASVKLSCKASGYTFTNYWMHWVKLRPGQGFEWIGEINPTNGGTDYNEKFKRKATLTVDKSSSTAYMQLSSLTSEDSAVYYCTIYTTALDYWGQGTTLTVSS
VL: QIVLTQSPALMSASPGERVTLTCSASSSVGYMYWYQQKPGSSPKPWIYVTSNLASGVPARFSGSGSGTSYSLTISSMEAEDAATYYCQQWSSNPPTFGAGTKLELK
B2: Chimeric antibody (293T): chimeric human IgG1 obtained by substituting the constant regions of the B2E5-48 mouse antibody with those of human IgG type 1; control (antibody, V domains shown)
VH: B1 VH
VL: B1 VL
B3: H4-L2: humanized B2E5-48 IgG1, VH H4 (SEQ ID NO: 14), VL L2 (SEQ ID NO: 7) (antibody, V domains shown)
VH: QVQLVQSGSELKKPGASVKVSCKASGYTFTNYWMHWVRQAPGQGLEWMGEINPTNGGTDYNEGFTGRFVFSVDKSVSTAYLQISSLKAEDTAVYYCTIYTTALDYWGQGTLVTVSS
VL: EIVLTQSPATLSLSPGERATLSCRASSSVGYMYWYQQKPGQAPRPLIYVTSNRATGIPARFSGSGSGTDYTLTISSLEPEDFAVYYCQQWSSNPPTFGQGTKLEIK
modifications: Variable Region of Heavy Chain 4 (Humanized B2E5-48); Variable Region of Light Chain 2 (Humanized B2E5-48)
B4: H4-L4: humanized B2E5-48 IgG1, VH H4 (SEQ ID NO: 14), VL L4 (SEQ ID NO: 8) (antibody, V domains shown)
VH: B3 VH
VL: DIQLTQSPSFLSASVGDRVTITCRASSSVGYMYWYQQKPGKAPKPLIYVTSNLASGVPSRFSGSGSGTEYTLTISSLQPEDFATYYCQQWSSNPPTFGQGTKLEIK
modifications: Variable Region of Heavy Chain 4 (Humanized B2E5-48); Variable Region of Light Chain 4 (Humanized B2E5-48)
B5: H4-L3: humanized B2E5-48 IgG1, VH H4 (SEQ ID NO: 14), VL L3 (SEQ ID NO: 10) (antibody, V domains shown)
VH: B3 VH
VL: B4 VL with D1Q
modifications: Variable Region of Heavy Chain 4 (Humanized B2E5-48); Variable Region of Light Chain 3 (Humanized B2E5-48)

What follows are molecules tested on hEva1-mouse Fc (assay: Surface plasmon resonance kinetics analysis (BiaCore T200, single-cycle)). Conditions: SPR, antibody captured 5 nM, analyte hEva1-mouse Fc 1-250 nM, HBS-EP+ pH 7.4.
Chain of hEva1-mouse Fc (O60487 27-154 limits assumed): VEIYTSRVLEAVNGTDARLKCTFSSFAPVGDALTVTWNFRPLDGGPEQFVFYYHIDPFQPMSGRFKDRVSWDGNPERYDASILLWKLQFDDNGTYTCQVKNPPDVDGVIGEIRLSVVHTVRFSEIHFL
Assay type: binding, human
Method: The dissociation constants and association constants of the humanized antibodies and the like were analyzed by using surface plasmon resonance (SPR, product name: BiaCore T200 (manufactured by GE healthcare)).
Specifically, first, human IgG capture antibodies were immobilized on a CM5 chip by an amine coupling method. This immobilization was conducted in both reference cells and active cells. Then, the kinetics analysis on the anti-Eval antibody and hEva1 was conducted by a single-cycle method using the following measurement conditions.
• Sample compartment temperature: 10° C. • Running buffer: HBS-EP+buffer, pH 7.4 • Capturing molecule: Human IgG antibody, reference & active cells • Ligand: Various antibodies 5 nM, active cells only • Analyte: hEva1-mouse Fc1, 5, 25, 125, 250 nM, reference & active cells • Regeneration buffer: 3M MgCl2, reference & active cells • 3 cycles of Blanks (Analyte zero concentration)

kd [s⁻¹]	Molecule	ka [M⁻¹ s⁻¹]
0.008447	B1	19010
0.00947	B2	19640
0.01457	B3	18980
0.01525	B4	15340
0.01357	B5	15480
